Residue numbers refer to the chain shown, from its start. Numbers in names are those of the source.
B1: wild-type DP4 (DPA1*01:03 / DPB1*04:01) on K562 cells (other, human)
MHC II alpha: not shown
MHC II beta: not shown
notes: whole, on cells; also called HLA-DP4
B2: V114M (other)
DP alpha chain: IKADHVSTYAAFVQTHRPTGEFMFEFDEDEMFYVDLDKKETVWHLEEFGQAFSFEAQGGLANIAILNNNLNTLIQRSNHTQATNDPPEVTVFPKEPVELGQPNTLICHIDKFFPPVLNVTWLCNGELVTEGVAESLFLPRTDYSFHKFHYLTFVPSAEDFYDCRVEHWGLDQPLLKHWEAQEPIQMPETTET
DP beta chain: RATPENYLFQGRQECYAFNGTQRFLERYIYNREEFARFDSDVGEFRAVTELGRPAAEYWNSQKDILEEKRAVPDRMCRHNYELGGPMTLQRRVQPRVNVSPSKKGPLQHHNLLMCHVTDFYPGSIQVRWFLNGQEETAGVVSTNLIRNGDWTFQILVMLEMTPQQGDVYTCQVEHTSLDSPVTVEWKAQSDSARSK
notes: also called DP4 with the single V114M substitution on K562 cells
B3: V114M/M158I (other)
DP alpha chain: B2 DP alpha chain
DP beta chain: B2 DP beta chain with M158I
notes: also called DP4 reversion mutant on K562 cells
B4: M158I (other)
DP alpha chain: B2 DP alpha chain
DP beta chain: B2 DP beta chain with M114V, M158I
notes: also called DP4 with the single M158I substitution on K562 cells
B5: L112W/M158I (other)
DP alpha chain: B2 DP alpha chain
DP beta chain: B2 DP beta chain with L112W, M114V, M158I
notes: as for B3
B6: L112W/V114M/M158I (other)
DP alpha chain: B2 DP alpha chain
DP beta chain: B2 DP beta chain with L112W, M158I
notes: as for B3
B7: L112W/V114M (other)
DP alpha chain: B2 DP alpha chain
DP beta chain: B2 DP beta chain with L112W
notes: as for B3
B8: biotinylated recombinant wild-type DP4 (extracellular domains of DPA1*01:03 and wild-type DPB1*04:01, leucine zippers) (other)
MHC II alpha: IKADHVSTYAAFVQTHRPTGEFMFEFDEDEMFYVDLDKKETVWHLEEFGQAFSFEAQGGLANIAILNNNLNTLIQRSNHTQATNDPPEVTVFPKEPVELGQPNTLICHIDKFFPPVLNVTWLCNGELVTEGVAESLFLPRTDYSFHKFHYLTFVPSAEDFYDCRVEHWGLDQPLLKHWEAQEPIQMPETTETGGGGSLEIRAAFLRQRNTALRTEVAELEQEVQRLENEVSQYETRYGPLGGGKGSHHHHHHHHHH
MHC II beta: RATPENYLFQGRQECYAFNGTQRFLERYIYNREEFARFDSDVGEFRAVTELGRPAAEYWNSQKDILEEKRAVPDRMCRHNYELGGPMTLQRRVQPRVNVSPSKKGPLQHHNLLVCHVTDFYPGSIQVRWFLNGQEETAGVVSTNLIRNGDWTFQILVMLEMTPQQGDVYTCQVEHTSLDSPVTVEWKAQSDSARSKGGGGSLEIEAAFLERENTALETRVAELRQRVQRLRNRVSQYRTRYGPLGGGKGSGLNDIFEAQKIEWHE
notes: also called biotinylated wild-type DP4 (ligand)
B9: biotinylated recombinant DP4^[change]/[change] (extracellular domains of DPA1*01:03 and DPB1*04:01 [ (other)
MHC II alpha: B8 MHC II alpha
MHC II beta: B8 MHC II beta with L112W, V141M

What was measured:
[1] = biological target: T1, soluble CD4 (sCD4): human CD4 extracellular domain fused with a 6×His tag via a GS linker, dimerized with a … (human, UniProt P01730 26-396); assay: flow cytometry, K562 cells
T1 construct: also called soluble CD4 protein; soluble CD4 dimer

[2] = biological target: T1, soluble CD4 (sCD4): human CD4 …; assay: flow cytometry, sCD4 MFI of K562 cells
[3] = biological target: T2, recombinant 10× His-tagged CD4 protein (extracellular domain of human CD4, GS linker, 10× histidine tag) (human, UniProt P01730 26-390); assay: biolayer interferometry
T2 construct: also called recombinant CD4; sCD4 (analyte)

[4] = biological target: T2, recombinant 10× His-tagged CD4 protein …; assay: biolayer interferometry (Octet Red), biotinylated DP4 on streptavidin sensors, CD4 as analyte, steady-state fit
[5] = biological target: T2, recombinant 10× His-tagged CD4 protein …; assay: BLI KD set against the earlier estimate of KD >2 mM between CD4 and HLA class II

| Binder | binding result [2] | also measured |
| --- | --- | --- |
| B1 |  | binding result [1]: no binding |
| B2 | no binding |  |
| B3 | no binding |  |
| B4 | no binding |  |
| B5 | no binding |  |
| B6 | no binding |  |
| B7 | no binding |  |
| B8 |  | binding result [3]: no binding (tested: 26 µM) |
| B9 |  | Kd [4]: 8.9 µM; fold improvement in the binding affinity [5]: ≥ 200 fold |
